From article PMC12215968

Target: T1, nucleoside-disphosphate kinase B (NME2) (human (endogenous in HEK293)), P22392
T1 chain: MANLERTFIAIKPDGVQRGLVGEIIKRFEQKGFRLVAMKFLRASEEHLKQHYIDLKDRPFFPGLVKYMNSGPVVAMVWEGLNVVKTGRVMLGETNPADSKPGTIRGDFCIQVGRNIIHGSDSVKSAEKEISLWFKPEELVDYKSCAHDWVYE
Assay: cross-linking; in vivo: intact 293 HBTH-CSN2 cells, 1 mM TSTO in PBS pH 7.4, 1 h, room temperature; SEC-HpHt separation of peptides, LC-MSn
Details: remark: other sources report otherwise

B1: nucleoside-disphosphate kinase B (NME2), P22392 1-152 (natural protein)
chain: MANLERTFIAIKPDGVQRGLVGEIIKRFEQKGFRLVAMKFLRASEEHLKQHYIDLKDRPFFPGLVKYMNSGPVVAMVWEGLNVVKTGRVMLGETNPADSKPGTIRGDFCIQVGRNIIHGSDSVKSAEKEISLWFKPEELVDYKSCAHDWVYE
- stoichiometry N: 3
